In patent US20240218065A1 (SHENGHE CHINA BIOPHARMACEUTICAL, published 2024):
Read-outs that look alike come from different tables or passages of the source. One block for each binder: values may come before it.

Experiments:
[1] = biological target: T1, Human-NKP30-His (Kactus, cat: NKP-HM430) (human, UniProt O14931 19-138, limits assumed); test: ELISA: Human-NKP30-His coated, antibody titrated 3-fold from 10 µg/mL, HRP goat anti-human IgG-Fc, OD450-OD570
T1 construct: also called NKP30 protein; NKP30-his protein; not shown: His tag
T1 sequence (looked up): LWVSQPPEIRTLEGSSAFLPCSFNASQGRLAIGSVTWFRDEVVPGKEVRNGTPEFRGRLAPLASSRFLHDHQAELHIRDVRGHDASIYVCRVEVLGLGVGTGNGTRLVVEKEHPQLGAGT
Protocol: (§1) Human-NKP30-His (Kactus, cat: NKP-HM430) was diluted to […] with PBS buffer at pH 7.4, added into the 96-well ELISA plate at 100 μL per well, coated overnight at 4° C., and blocked with 1% BSA blocking solution for 1 hour. The plate was washed 3 times with PBST, and the constructed antibodies were diluted to 10 μg/mL with 0.5% BSA sample diluent as the starting concentration, and then diluted by 3-fold gradient (11 gradients in total). A negative control (blank well and IgG1 isotype control) and a positive control were set, and the positive control was a NKP30 humanized antibody (sequence shown in SEQ ID No. 28), and incubated at 37° C. for 1 h at 100 μL per well. […] The absorbance value of each well in the 96-well plate was determined by selecting the wavelength of 450 nm and the reference wavelength of 570 nm on a multifunctional enzyme marker, and the absorbance value (OD)=OD₄₅₀ₙₘ−OD₅₇₀ₙₘ. The logarithm of the concentration of the constructed antibody was taken as the abscissa, and the measured absorbance value of each well was taken as the ordinate, and the Sigmoidaldose-response (Variable Slope) method (GraphPad Prism software, GraphPad Software, San Diego, California) was selected for nonlinear regression to obtain the binding curve of the target antibody to NKP30.

[2] = biological target: T1, Human-NKP30-His (Kactus, cat: NKP-HM430); test: as above; remark: listed apart in the source
Protocol: (§2) Human-NKP30-His (Kactus, cat: NKP-HM430) was diluted to […] with PBS buffer at pH 7.4, added into the 96-well ELISA plate at 100 μL per well, coated overnight at 4° C., and blocked with 1% BSA blocking solution for 1 hour. The plate was washed 3 times with PBST, and the constructed antibodies were diluted to 10 μg/mL with 0.5% BSA sample diluent as the starting concentration, and then diluted by 3-fold gradient (11 gradients in total). A negative control (blank well and IgG1 isotype control) and a positive control were set, and the positive control was a NKP30 humanized antibody (sequence shown in SEQ ID No. 28), and incubated at 37° C. for 1 h at 100 μL per well. The plate was washed 3 times with PBST, and then HRP-labelled goat anti-human IgG-Fc was diluted with the sample diluent at 1:20000. 100 μL was added into each well, and incubated at room temperature for 1 hour. The plate was washed 4 times with PBST, and 100 μL of TMB substrate was added into each well, and incubated at room temperature without light for 10 minutes. 100 μL of 1 M HCl solution was added into each well to terminate the color development reaction. The absorbance value of each well in the 96-well plate was determined by selecting the wavelength of 450 nm and the reference wavelength of 570 nm on a multifunctional enzyme marker, and the absorbance value (OD)=OD₄₅₀ₙₘ−OD₅₇₀ₙₘ. The logarithm of the concentration of the constructed antibody was taken as the abscissa, and the measured absorbance value of each well was taken as the ordinate, and the Sigmoidaldose-response (Variable Slope) method (GraphPad Prism software, GraphPad Software, San Diego, California) was selected for nonlinear regression to obtain the binding curve of the target antibody to NKP30.

[3] = biological target: T1, Human-NKP30-His (Kactus, cat: NKP-HM430); test: as above; remark: listed apart in the source
Protocol: as §2

[4] = biological target: T1, Human-NKP30-His (Kactus, cat: NKP-HM430); test: as above; remark: listed apart in the source
Protocol: as §1

Human-GPC3-His = biological target: T2, Human-GPC3-His (human, UniProt P51654 25-559, limits assumed); test: ELISA: Human-GPC3-His coated at 0.5 µg/mL, antibody titrated 3-fold from 10 µg/mL, HRP goat anti-human IgG-Fc, OD450-OD570
T2 construct: Coated on the ELISA plate; also called GPC-3 protein; GPC3 protein; not shown: His tag
Protocol: Human-GPC3-His was diluted to 0.5 μg/mL with PBS buffer at pH 7.4, added into the 96-well ELISA plate at 100 μL per well, coated overnight at 4° C., and blocked with 1% BSA blocking solution for 1 hour. The plate was washed 3 times with PBST, and the constructed antibody was diluted to 10 μg/mL with 0.5% BSA sample diluent as the starting concentration, and then diluted by 3-fold gradient (11 gradients in total) and incubated at 37° C. for 1 h at 100 μL per well. The plate was washed 3 times with PBST, and then HRP-labelled goat anti-human IgG-Fc was diluted with the sample diluent at 1:20000. 100 μL was added into each well, and incubated at room temperature for 1 hour. A negative control (blank well and IgG1 isotype control) and a positive control were set, and the positive control was a GPC-3 and CD3 bispecial antibody from the literature Hs, A, et al. “Engineering a bispecific antibody with a common light chain: Identification and optimization of an anti-CD3 epsilon and anti-GPC3 bispecific antibody, ERY974.” Methods 154 (2019): 10-20. (The GPC-3 and CD3 bispecial antibody sequence consists of SEQ ID No. 22, SEQ ID No. 23, and SEQ ID No. 24). The plate was washed 4 times with PBST, and 100 μL of TMB substrate was added into each well, and incubated at room temperature without light for 10 minutes. 100 μL of 1 M HCl solution was added into each well to terminate the color development reaction. The absorbance value of each well in the 96-well plate was determined by selecting the wavelength of 450 nm and the reference wavelength of 570 nm on a multifunctional enzyme marker, and the absorbance value (OD)=OD₄₅₀ₙₘ−OD₅₇₀ₙₘ. The logarithm of the concentration of the constructed antibody was taken as the abscissa, and the measured absorbance value of each well was taken as the ordinate, and the Sigmoidaldose-response (Variable Slope) method (GraphPad Prism software, GraphPad Software, San Diego, California) was selected for nonlinear regression to obtain the binding curve of the target antibody to the GPC-3 protein.

T2 sequence (P51654 25-559 limits assumed): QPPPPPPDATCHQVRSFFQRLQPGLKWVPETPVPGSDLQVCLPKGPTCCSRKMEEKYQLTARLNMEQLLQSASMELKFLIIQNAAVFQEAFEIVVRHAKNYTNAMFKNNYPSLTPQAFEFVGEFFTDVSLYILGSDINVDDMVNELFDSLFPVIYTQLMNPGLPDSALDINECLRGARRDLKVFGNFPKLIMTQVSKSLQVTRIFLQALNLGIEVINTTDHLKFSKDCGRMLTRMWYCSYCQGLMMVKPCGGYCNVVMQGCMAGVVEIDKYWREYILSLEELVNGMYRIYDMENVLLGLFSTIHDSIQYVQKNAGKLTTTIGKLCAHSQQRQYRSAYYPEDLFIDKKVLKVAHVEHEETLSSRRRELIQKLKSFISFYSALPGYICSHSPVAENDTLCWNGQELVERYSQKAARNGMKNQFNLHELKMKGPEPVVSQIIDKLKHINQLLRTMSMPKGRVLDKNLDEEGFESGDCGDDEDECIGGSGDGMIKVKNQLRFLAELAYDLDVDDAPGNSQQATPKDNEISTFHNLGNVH

- EC50 (read off the curve) [1]: ~0.03 µg/mL
- EC50 (read off the curve) [2]: ~0.03 µg/mL
- EC50 (read off the curve) [3]: ~0.03 µg/mL
- EC50 (read off the curve) [4]: ~0.03 µg/mL
B1: NKP30 humanized antibody (antibody, V domains shown)
VH: EVQLVESGGGLVQPGGSLRLSCAASGITFSRSVMGWFRQAPGKLRELVAGITSDDNTDYADSVKGRFTISRDNSKNTLYLQMNSLRAEDTAVYYCNILPDSRLGWGQGTLVTVSS
notes: detected with anti-human IgG-Fc

- EC50 (read off the curve) [4]: ~0.06 µg/mL
- EC50 (read off the curve) (Human-GPC3-His): ~0.01 µg/mL
B2: GN15-H (bispecific antibody, human IgG1, kappa)
light: DVVMTQSPLSLPVTPGEPASISCRSSQSLVHSNRNTYLHWYLQKPGQSPQLLIYKVSNRFSGVPDRFSGSGSGTDFTLKISRVEAEDVGVYYCSQNTHVPPTFGQGTKLEIKRTVAAPSVFIFPPSDEQLKSGTASVVCLLNNFYPREAKVQWKVDNALQSGNSQESVTEQDSKDSTYSLSSTLTLSKADYEKHKVYACEVTHQGLSSPVTKSFNRGEC
heavy 1: not shown
heavy 2: QVQLVQSGAEVKKPGASVKVSCKASGYTFTDYEMHWVRQAPGQGLEWMGALDPKTGDTAYSQKFKGRVTLTADKSTSTAYMELSSLTSEDTAVYYCTRFYSYTYWGQGTLVTVSSASTKGPSVFPLAPSSKSTSGGTAALGCLVKDYFPEPVTVSWNSGALTSGVHTFPAVLQSSGLYSLSSVVTVPSSSLGTQTYICNVNHKPSNTKVDKKVEPKSCDKTHTCPPCPGGGGSGGGGSPALLLLLLLRPPATRGITCPPPMSVEHADIWVKSYSLYSRERYICNSGFKRKAGTSSLTECVLNKATNVAHWTTPSLKCIRDPALVHQRPAPPSTVTTAGVTPQPESLSPSGKEGGGGSGGGGSAPELLGGPSVFLFPPKPKDTLMISRTPEVTCVVVDVSHEDPEVKFNWYVDGVEVHNAKTKPREEQYNSTYRVVSVLTVLHQDWLNGKEYKCKVSNKALPAPIEKTISKAKGQPREPQVYTLPPSRDELTKNQVSLTCLVKGFYPSDIAVEWESNGQPENNYKTTPPVLDSDGSFFLASKLTVDKSRWQQGNVFSCSVMHEALHNHYTQKSLSLSPGK
notes: Trifunctional antibody against GPC-3 and NKP30 with IL-15 and IL-15Rα sushi between CH1 and CH2; also called constructed antibody GN15-H; multifunctional antibody
